The values below come from patent US20090246142.

For series [1], the system named is MMP-2 substrate G-K(TAMRA)-G-P-L-G-V-R-G-C-CONH2 with 20 kDa PEG, on ligand (biotin) TSACs (Example 3).
Series [2] deals with MMP-7-MMP-2 tandem substrate TAMRA-G-K-G-V-P-L-S-L-T-M-Ahx-G-P-L-G-V-R-G-C-CONH2 with 20 kDa PEG, on ligand (biotin) TSACs (Example 3).
For series [3], the system named is MMP-2 cleavable peptide substrate KGPLGVRGC, PEG on the lysine, on biotin and NeutrAvidin nanoparticles (Example 1).
Series [4] has as its system MMP-7 substrate G-K(TAMRA)-G-V-P-L-S-L-T-M-G-C-CONH2 with 20 kDa PEG, on receptor (NeutrAvidin) TSACs (Example 3).
The subject of series [5] is T1, TAMRA-(Ahx)SRVGEEEHVYSFPNKQKSAEC-CONH2 (unphosphorylated Abl substrate derived from paxillin) on nanoparticles (Y-Abl TSACs).
T1 sequence: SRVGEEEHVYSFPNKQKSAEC

recombinant catalytic domain of matrix metalloproteinase-2 (MMP-2; Biomol), sequence (chain, as listed by the source): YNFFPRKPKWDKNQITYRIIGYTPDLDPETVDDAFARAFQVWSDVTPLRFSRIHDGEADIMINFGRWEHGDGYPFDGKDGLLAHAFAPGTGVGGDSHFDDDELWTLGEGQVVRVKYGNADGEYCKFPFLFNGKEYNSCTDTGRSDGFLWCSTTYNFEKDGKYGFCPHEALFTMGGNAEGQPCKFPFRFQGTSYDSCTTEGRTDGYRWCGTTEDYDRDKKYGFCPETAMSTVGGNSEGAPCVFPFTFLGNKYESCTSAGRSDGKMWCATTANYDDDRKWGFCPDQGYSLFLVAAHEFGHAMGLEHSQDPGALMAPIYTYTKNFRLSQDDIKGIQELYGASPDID

As to “recombinant catalytic domain of matrix metalloproteinase-2 (MMP-2; Biomol)”, in series [1], the “TSAC assembly in DLS” value is “Addition of 0.4 µg MMP-2 actuates TSAC assembly, while 0.4 µg MMP-7 or no enzyme is insufficient”. Moreover, in series [2], the “hydrodynamic radius increase in DLS” value is “Hydrodynamic radii increased more than 5-fold in the presence of either enzyme or both enzymes”. Further, in series [3], the “TSAC assembly (extinction at 600 nm, AFM)” value is given as “The TSACs with the scrambled peptide exhibit markedly decreased assembly compared to the specific peptide sequence” and the “lowest MMP-2 concentration detected by T2 relaxation (MRI)” value is given as “TSACs at a 10 pM concentration were sensitive to at least 170 ng/ml (9.4 U/ml) of MMP-2”. Further, in series [4], the “TSAC assembly in DLS” value is “addition of 0.4 µg MMP-7 induces assembly, while 0.4 µg MMP-2 cannot”.
Take Abl kinase (New England Biolabs): in series [5], the “TSAC assembly in DLS (hydrodynamic radius)” value is on record as “Abl kinase rapidly directed assembly in solutions containing Y-Abl TSACs with SH2 TSACs” and the “lowest kinase amount giving quantifiable T2 relaxation enhancement (MRI)” value was “as little as 11 fentomoles of added kinase (110 pM kinase concentrations=0.05 U/µl”.
